Measured values from PMC8892158.

Target: Staphylococcus aureus FakA (S. aureus)

Work on “Staphylococcus aureus FakB1 (wild type), palmitate-loaded (from UniProt X5EH37 1-288) (natural protein)” yielded an apparent KM of FakB1 in the FA kinase assay with 0.2 μM FakA of 0.13 µM.
“Staphylococcus aureus FakB1(A121I), palmitate-loaded (from UniProt X5EH37 1-288) (natural protein)” gave an apparent KM of FakB1(A121I) in the FA kinase assay with 0.2 μM FakA of 0.1 µM.
“Staphylococcus aureus FakB1(A158L), myristate-loaded (from UniProt X5EH37 1-288) (natural protein)” showed an apparent KM of FakB1(A158L) in the FA kinase assay with 0.2 μM FakA of 0.13 µM.
